From patent US20250352661A1 (MYTHIC THERAPEUTICS, published 2025)
Changes are numbered by the printed parent chain. Names and notes keep the numbering of the source.

B1: MYT6123 (antibody, V domains shown)
VH: QEQLEESGGDLVKPGASLTLTCTASGLDFRRTNYICWVRQAPGKGLEWIGCIYIADVVHYYASWAKGRFTFSKTSSTTVTLQMTSLTAADTATYFCARGADGGFVYGMDLWGPGTLVTVSS
VL: DVVMTQTPASVSEPVGGTVTIKCQHSQSIGNYLSWYQQKPGQRPKRLIYSASTLPSGVPSRFKGAGSGTEFTLTISDLESADAATYYCQNNYWLAGYGHPFGGGTEVVVK
notes: rabbit 15G7 VL A25H; chimeric, human constant regions
B2: MYT6124 (antibody, V domains shown)
VH: B1 VH
VL: B1 VL with H25A, S26H
notes: rabbit 15G7 VL S26H; chimeric, human constant regions
B3: MYT6125 (antibody, V domains shown)
VH: B1 VH
VL: B1 VL with H25A, Q27H
notes: rabbit 15G7 VL Q27H; chimeric, human constant regions
B4: MYT6126 (antibody, V domains shown)
VH: B1 VH
VL: B1 VL with H25A, S28H
notes: rabbit 15G7 VL S28H; chimeric, human constant regions
B5: MYT6127 (antibody, V domains shown)
VH: B1 VH
VL: B1 VL with H25A, I29H
notes: rabbit 15G7 VL I29H; chimeric, human constant regions
B6: MYT6128 (antibody, V domains shown)
VH: B1 VH
VL: B1 VL with H25A, G30H
notes: rabbit 15G7 VL G30H; chimeric, human constant regions
B7: MYT6129 (antibody, V domains shown)
VH: B1 VH
VL: B1 VL with H25A, N31H
notes: rabbit 15G7 VL N31H; chimeric, human constant regions
B8: MYT6130 (antibody, V domains shown)
VH: B1 VH
VL: B1 VL with H25A, Y32H
notes: rabbit 15G7 VL Y32H; chimeric, human constant regions
B9: MYT6131 (antibody, V domains shown)
VH: B1 VH
VL: B1 VL with H25A, L33H
notes: rabbit 15G7 VL L33H; chimeric, human constant regions
B10: MYT6132 (antibody, V domains shown)
VH: B1 VH
VL: B1 VL with H25A, S34H
notes: rabbit 15G7 VL S34H; chimeric, human constant regions
B11: MYT6133 (antibody, V domains shown)
VH: B1 VH
VL: B1 VL with H25A, S50H
notes: rabbit 15G7 VL S50H; chimeric, human constant regions
B12: MYT6134 (antibody, V domains shown)
VH: B1 VH
VL: B1 VL with H25A, A51H
notes: rabbit 15G7 VL A51H; chimeric, human constant regions
B13: MYT6135 (antibody, V domains shown)
VH: B1 VH
VL: B1 VL with H25A, S52H
notes: rabbit 15G7 VL S52H; chimeric, human constant regions
B14: MYT6136 (antibody, V domains shown)
VH: B1 VH
VL: B1 VL with H25A, T53H
notes: rabbit 15G7 VL T53H; chimeric, human constant regions
B15: MYT6137 (antibody, V domains shown)
VH: B1 VH
VL: B1 VL with H25A, L54H
notes: rabbit 15G7 VL L54H; chimeric, human constant regions
B16: MYT6138 (antibody, V domains shown)
VH: B1 VH
VL: B1 VL with H25A, P55H
notes: rabbit 15G7 VL P55H; chimeric, human constant regions
B17: MYT6139 (antibody, V domains shown)
VH: B1 VH
VL: B1 VL with H25A, S56H
notes: rabbit 15G7 VL S56H; chimeric, human constant regions
B18: MYT6140 (antibody, V domains shown)
VH: B1 VH
VL: B1 VL with H25A, Q89H
notes: rabbit 15G7 VL Q89H; chimeric, human constant regions

Target: T1, Human LRRC15 Protein, His Tag (Acro Biosystems) (human, UniProt Q8TF66 22-538, limits assumed)
T1 construct: Bought protein with His tag
T1 sequence (looked up): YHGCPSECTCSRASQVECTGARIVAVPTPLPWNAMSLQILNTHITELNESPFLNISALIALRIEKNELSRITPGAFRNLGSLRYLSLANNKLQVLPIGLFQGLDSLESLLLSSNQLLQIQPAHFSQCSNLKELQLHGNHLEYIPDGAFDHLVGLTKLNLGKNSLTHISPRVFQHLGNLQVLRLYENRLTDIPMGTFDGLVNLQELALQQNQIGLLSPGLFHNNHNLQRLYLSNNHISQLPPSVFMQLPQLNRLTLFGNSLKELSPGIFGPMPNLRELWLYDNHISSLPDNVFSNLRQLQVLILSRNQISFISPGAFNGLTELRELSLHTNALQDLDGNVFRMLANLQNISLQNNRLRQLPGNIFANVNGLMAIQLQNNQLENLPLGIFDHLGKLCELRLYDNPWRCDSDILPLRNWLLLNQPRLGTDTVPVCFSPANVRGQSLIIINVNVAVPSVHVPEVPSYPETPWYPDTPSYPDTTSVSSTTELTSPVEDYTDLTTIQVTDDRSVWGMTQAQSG
Assay: BLI; dissociation pH 7.4 black, pH 5.4 grey [D00008 FIG. 1F]
Source text: For each individual plot, antigen binding proteins were captured on anti-human Fc biosensors and associated with LRRC15 at pH 7.4. Dissociation was at pH 7.4 (black) or pH 5.4 (grey). Major X-axis ticks=100 seconds, with left dashed vertical line=0 seconds. Major Y-axis ticks=0.5 nm and octet plots are shown MYT5712 and MYT6080-MYT6121.
Multiple LRRC15-binding monoclonal antibodies have been described in the literature and can be used as a template for engineering pH-dependent binding. We selected discovery RabMAb clone 15G7 (rabbit VH SEQ ID NO: 378, rabbit VL SEQ ID NO: 451; humanized VH SEQ ID NO: 382, humanized VL SEQ ID NO: 455) as a LRRC15-binding monoclonal antibody for pH-engineering via histidine scanning. […] To generate pH-dependent sequence variants, individual amino acid residues within the heavy chain CDRs were systematically substituted with a histidine (or alanine if H was already present in a given position; e.g., MYT6099), one at a time (rabbit, MYT6080-6121). Desirable mutations were transferred to a humanized framework (humanized, MYT 8387-8411). After allowing for four days of protein expression, cell culture supernatants were collected, quantified by SDS-PAGE analysis, and the pH dependence of the variant was evaluated using biolayer interferometry (BLI) on an Octet RED 96e instrument. Briefly, cell culture supernatants were diluted based on qualitative expression level of the variant determined by visual examination of SDS-PAGE gels, 5 μL of cell culture supernatant was diluted into 195 μL of 1×PBST, pH 7.4 for high expressors, 25 μL of cell culture supernatant was diluted into 175 μL of 1×PBST, pH 7.4 for medium expressors and 100 μL of cell culture supernatant was diluted into 100 μL of 1×PBST, pH 7.4 for low expressors for loading onto the sensor tips.

Binder | binding result
B1 | binds
B2 | binds
B3 | binds
B4 | binds
B5 | binds
B6 | binds
B7 | binds
B8 | binds
B9 | binds
B10 | binds
B11 | binds
B12 | binds
B13 | binds
B14 | binds
B15 | binds
B16 | binds
B17 | binds
B18 | binds
